Earlier results, collected in patent US10385327B2, “Enhanced E. coli for the production of fatty acids and method of producing the same” (University of Puerto Rico, priority 2012, dated 2019).

Legend:
[1] = tested on: E. coli BL21-DE3-CodonPlus (RIL) cells; settings: previous work by others
[2] = literature value for FAS dehydratase construct

Molecule	effect of overexpression on production of fatty acids in E. coli [1]	specific activity reported (Pasta et al., 2007) [2]
E. coli FabA dehydratase: DH enzyme involved in fatty acid biosynthesis in E. coli (protein, UniProt P0A6Q3 2-172, looked up) 3-hydroxydecanoyl-[acyl-carrie …: VDKRESYTKEDLLASGRGELFGAKGPQLPAPNMLMMDRVVKMTETGGNFDKGYVEAELDINPDLWFFGCHFIGDPVMPGCLGLDAMWQLVGFYLGWLGGEGKGRALGVGEVKFTGQVLPTAKKVTYRIHFKRIVNRRLIMGLADGEVLVDGRLIYTASDLKVGLFQDTSAF	does not increase the production of fatty acids	–
FAS 1-1168 construct: Fatty Acid Synthase construct of Pasta et al., 2007, literature comparator for dehydratase specific activity (protein, UniProt P49327 1-1168, looked up, fragment) MEEVVIAGMSGKLPESENLQEFWDNLIGGVDMVTDDDRRWKAGLYGLPRRSGKLKDLSRFDASFFGVHPKQAHTMDPQLRLLLEVTYEAIVDGGINPDSLRGTHTGVWVGVSGSETSEALSRDPETLVGYSMVGCQRAMMANRLSFFFDFRGPSIALDTACSSSLMALQNAYQAIHSGQCPAAIVGGINVLLKPNTSVQFLRLGMLSPEGTCKAFDTAGNGYCRSEGVVAVLLTKKSLARRVYATILNAGTNTDGFKEQGVTFPSGDIQEQLIRSLYQSAGVAPESFEYIEAHGTGTKVGDPQELNGITRALCATRQEPLLIGSTKSNMGHPEPASGLAALAKVLLSLEHGLWAPNLHFHSPNPEIPALLDGRLQVVDQPLPVRGGNVGINSFGFGGSNVHIILRPNTQPPPAPAPHATLPRLLRASGRTPEAVQKLLEQGLRHSQDLAFLSMLNDIAAVPATAMPFRGYAVLGGERGGPEVQQVPAGERPLWFICSGMGTQWRGMGLSLMRLDRFRDSILRSDEAVKPFGLKVSQLLLSTDESTFDDIVHSFVSLTAIQIGLIDLLSCMGLRPDGIVGHSLGEVACGYADGCLSQEEAVLAAYWRGQCIKEAHLPPGAMAAVGLSWEECKQRCPPGVVPACHNSKDTVTISGPQAPVFEFVEQLRKEGVFAKEVRTGGMAFHSYFMEAIAPPLLQELKKVIREPKPRSARWLSTSIPEAQWHSSLARTSSAEYNVNNLVSPVLFQEALWHVPEHAVVLEIAPHALLQAVLKRGLKPSCTIIPLMKKDHRDNLEFFLAGIGRLHLSGIDANPNALFPPVEFPAPRGTPLISPLIKWDHSLAWDVPAAEDFPNGSGSPSAAIYNIDTSSESPDHYLVDHTLDGRVLFPATGYLSIVWKTLARALGLGVEQLPVVFEDVVLHQATILPKTGTVSLEVRLLEASRAFEVSENGNLVVSGKVYQWDDPDPRLFDHPESPTPNPTEPLFLAQAEVYKELRLRGYDYGPHFQGILEASLEGDSGRLLWKDNWVSFMDTMLQMSILGSAKHGLYLPTRVTAIHIDPATHRQKLYTLQDKAQVADVVVSRWLRVTVAGGVHISGLHTESAPRRQQEQQVPILEKFCFTPHTEEGCLSERAALQEELQLCKGLVQALQTKVTQQGLKMVVPGLDGAQ	–	204 mol product/(min*mol enzyme)
